# From US20120021993A1 (AJOU UNIVERSITY INDUSTRY ACADEMIC COOPERATION FOUNDATION, published 2012)
# Experiments:
# [1] = molecular target: T1, DcR2 (UniProt Q9UBN6 56-211, limits assumed); experiment: ELISA, coated target, single binder concentration not given, A405
# T1 sequence (looked up): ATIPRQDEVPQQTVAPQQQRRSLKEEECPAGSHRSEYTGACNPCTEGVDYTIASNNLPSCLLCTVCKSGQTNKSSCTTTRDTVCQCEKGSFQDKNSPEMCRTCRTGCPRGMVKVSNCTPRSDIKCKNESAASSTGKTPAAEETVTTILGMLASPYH
# Experimental: (§1) In order to measure the affinity and cross reactivity of the anti-DR4, -DR5 and -TNFα protein scaffold variants based on the Kringle domain structure to the target molecules, an enzyme-linked immunosorbent assay (ELISA) was performed. The target molecules DR4, DR5, TNFα and DcR1, DcR2 were attached to a 96 well EIA/RIA plate (COSTARCorning In., USA) by its reaction at 37° C. for 1 hour, and washed three times with 0.1% PBST (0.1% Tween20, pH 7.4, 137 mM NaCl, 10 mM Phosphate, 2.7 mM KCl, SIGMA-ALDRICH Co., USA) for 10 minutes. The target molecules were attached for 1 hour to a 96 well EIA/RIA plate in 1% PBSB (1% BSA, pH 7.4, 137 mM NaCl, 10 mM Phosphate, 2.7 mM KCl, SIGMA-ALDRICH Co., USA), and then washed three times with 0.1% PBST (0.1% Tween 20, pH 7.4, 137 mM NaCl, 10 mM Phosphate, 2.7 mM KCl, SIGMA-ALDRICH Co., USA) for 10 minutes. Then, the anti-DR4, -DR5 and -TNFα Kringle domain variants were bound, and washed three times with 0.1% PBST for 10 minutes. The anti-DR4, -DR5 and -TNFα Kringle domain variants were primarily bound to mouse-derived anti-c-myc 9e10 mAb (Ig Therapy, Korea), and secondarily bound to alkaline phosphatase (AP)-conjugated anti-mouse mAb (Sigma). Each of the Kringle domain variants was reacted with […] (pNPP, Sigma-aldrich Co., USA) and quantified at an absorbance of 405 nm.
# [2] = molecular target: T2, DcR1 (UniProt O14798 26-221, limits assumed); experiment: as above
# T2 sequence (looked up): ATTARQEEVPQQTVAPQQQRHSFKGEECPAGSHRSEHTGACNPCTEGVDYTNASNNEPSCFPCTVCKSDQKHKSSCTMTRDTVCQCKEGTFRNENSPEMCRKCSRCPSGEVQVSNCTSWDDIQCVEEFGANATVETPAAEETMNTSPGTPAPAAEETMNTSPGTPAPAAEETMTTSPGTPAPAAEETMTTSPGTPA
# Experimental: as §1
# [3] = molecular target: T3, human-derived cell death receptor 4, extracellular domain (amino acid residues 1-216), 6xHis tag (human, UniProt O00220 24-239); experiment: as above
# T3 construct: extracellular domain; Expressed in E. coli; biotinylated for sorting and flow cytometry; residues 1-216; also called DR4; TRAIL-receptor 1
# Experimental: as §1
# [4] = molecular target: T4, TNFα, extracellular domain (amino acid residue 1-157), 6xHis tag (human, UniProt P01375 57-233); experiment: as above
# T4 construct: extracellular domain; Expressed in E. coli; The printed residues 1-157 seem to count on the soluble form, not on the precursor; also called human TNFα; tumor necrosis factor alpha
# T4 sequence (P01375 other isoform, or with tags, fused parts or gaps limits assumed): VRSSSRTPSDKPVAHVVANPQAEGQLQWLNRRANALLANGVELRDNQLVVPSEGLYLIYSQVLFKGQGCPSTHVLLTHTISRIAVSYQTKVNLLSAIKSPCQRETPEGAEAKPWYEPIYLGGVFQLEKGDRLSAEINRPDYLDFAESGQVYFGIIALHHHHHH
# Experimental: as §1
# [5] = molecular target: T3, human-derived cell death receptor 4, …; experiment: competitive ELISA on coated DR4, biotinylated KD413 with TRAIL (amount not given), A405
# [6] = molecular target: T3, human-derived cell death receptor 4, …; experiment: ELISA, coated target, A405
# [7] = molecular target: T3, human-derived cell death receptor 4, …; experiment: ELISA, coated target, A405; remark: listed apart in the source
# Experimental: as §1, with “The anti-DR4, -DR5 and -TNFα Kringle domain variants were primarily bound to mouse-derived anti-c-myc 9e10 mAb (Ig Therapy, Korea), and secondarily bound to alkaline phosphatase (AP)-conjugated anti-mouse mAb (Sigma).” left out
# In order to analyze the affinities of the Fc-fused anti-DR4, -DR5 and -TNFα Kringle domains to target molecules, the affinities of the Fc-fused anti-DR4, -DR5 and -TNFα Kringle domains to the target molecules were analyzed using ELISA, as described in Example 8.
# [8] = molecular target: T2, DcR1; experiment: yeast display, flow cytometry MFI [panel KD413]
# [9] = molecular target: cell surface DR4 (human, UniProt O00220 24-468); experiment: cell-based or functional assay
# [10] = molecular target: T3, human-derived cell death receptor 4, …; experiment: ELISA, coated target, A405 [upper panel]
# Experimental: as §1
# [11] = molecular target: T3, human-derived cell death receptor 4, …; experiment: ELISA on coated DR4, KD413 alone, A405
# [12] = molecular target: T3, human-derived cell death receptor 4, …; experiment: ELISA, coated DR4, A405
# [13] = molecular target: T3, human-derived cell death receptor 4, …; experiment: ELISA on coated DR4, KD413 alone, A405; remark: listed apart in the source
# [14] = molecular target: T3, human-derived cell death receptor 4, …; experiment: competitive ELISA on coated DR4, biotinylated KD413 with KD415 (amount not given), A405
# [15] = molecular target: T5, human-derived cell death receptor 5, extracellular domain (amino acid residues 1-130), 6xHis tag (human, UniProt O14763 56-210); experiment: ELISA, homo-dimer against monomer
# T5 construct: extracellular domain; Expressed in E. coli; biotinylated for sorting and flow cytometry; also called DR5; TRAIL-receptor 2
# [16] = molecular target: T5, human-derived cell death receptor 5, …; experiment: ELISA, target coated on the plate
# [17] = molecular target: T3, human-derived cell death receptor 4, …; experiment: ELISA, coated target, A405; remark: listed apart in the source
# Experimental: as §1
# [18] = molecular target: T3, human-derived cell death receptor 4, …; experiment: ELISA, coated target, A405 [lower panel]
# Experimental: as §1
# [19] = molecular target: T3, human-derived cell death receptor 4, …; experiment: competitive ELISA on coated DR4, biotinylated KD415 with TRAIL (amount not given), A405
# [20] = molecular target: T3, human-derived cell death receptor 4, …; experiment: ELISA on coated DR4, KD415 alone, A405
# [21] = molecular target: T5, human-derived cell death receptor 5, …; experiment: ELISA, coated DR5, A405
# [22] = molecular target: T3, human-derived cell death receptor 4, …; experiment: sandwich ELISA: DR4 coated, binder titrated, soluble DR5 detected, A405
# [23] = molecular target: T5, human-derived cell death receptor 5, …; experiment: ELISA, coated target, A405
# Experimental: as §1
# [24] = molecular target: T5, human-derived cell death receptor 5, …; experiment: ELISA, coated target, A405 [lower panel]
# Experimental: as §1
# [25] = molecular target: cell surface DR5 (human, UniProt O14763 56-440); experiment: cell-based or functional assay
# [26] = molecular target: T5, human-derived cell death receptor 5, …; experiment: ELISA on coated DR5, KD548 alone, A405
# [27] = molecular target: T5, human-derived cell death receptor 5, …; experiment: ELISA on coated DR5, KD548 alone, A405; remark: listed apart in the source
# [28] = molecular target: T5, human-derived cell death receptor 5, …; experiment: competitive ELISA on coated DR5, biotinylated KD548 with KD506 (amount not given), A405
# [29] = molecular target: T3, human-derived cell death receptor 4, …; experiment: yeast display, flow cytometry MFI [panel KD548]
# [30] = molecular target: T5, human-derived cell death receptor 5, …; experiment: ELISA, coated target, A405; remark: listed apart in the source
# Experimental: as §1
binder,measurement,setting,value
"PgnKD2 (other, human, UniProt P00747 184-262, looked up, isolated Kringle domain 2; negative control; also called wild-type plasminogen Kringle domain 2) single chain: ECMHCSGENYDGKISKTMSGLECQAWDSQSPHAHGYIPSKFPNKNLKKNYCRNPDRELRPWCFTTDPNKRWELCDIPRC",binding result,[1],no binding
same,binding result,[2],no binding
same,binding result,[3],no binding
same,binding result,[4],no binding
"KD413 (designed binder, Soluble monomer from Pichia pastoris; also called anti-DR4 Kringle domain variant KD413; not shown: C-terminal myc tag-6xHis tag of pPICZaA) CAKAEGTGYDGHEHKTHKGIRCQNWYKSKPHYHGHQFRDGDKIKNKKNYCRNPDPRAGPWCFTHGNRNRYELCNQPRC",EC50 (read off the curve),[5],~800 nM
same,EC50 (read off the curve),[6],~100 nM
same,EC50 (read off the curve),[7],~100 nM
same,binding result,[8],no binding
same,"EC50 (a concentration of protein causing a 50% cell death), Jurkat, MTT assay",[9],90 nM
same,binding result,[1],no binding
same,EC50 (read off the curve),[10],~200 nM
same,EC50 (read off the curve),[11],~800 nM
same,EC50 (read off the curve),[12],~200 nM
same,EC50 (read off the curve),[13],~200 nM
same,EC50 (read off the curve),[14],~400 nM
anti-DR5 KD548 homo-dimer (designed binder) CHQTQGPKYDGNKDKTHKGHKCQSWTKNRPHHHGNKIENEDENRFQKNYCRNPDNKHEPWCFTHGHRDKHELCHEPRCGGGGSGGGGSGGGGSGGGGSCHQTQGPKYDGNKDKTHKGHKCQSWTKNRPHHHGNKIENEDENRFQKNYCRNPDNKHEPWCFTHGHRDKHELCHEPRC,fold increase of affinity against the monomer,[15],~10 fold
same,affinity value,[16],53 nM
"KD415 (designed binder, Soluble monomer from Pichia pastoris; also called anti-DR4 Kringle domain variant KD415; not shown: C-terminal myc tag-6xHis tag of pPICZaA) CTRSKGDEYDGHKHKTNRGLRCQHWPGTKPHFHGDKIKDRHGFRLKKNYCRNPDPQDQPWCFTNRHQHKNELCNQPRC",EC50 (read off the curve),[17],~300 nM
same,EC50 (read off the curve),[18],~300 nM
same,EC50 (read off the curve),[6],~300 nM
same,"EC50 (a concentration of protein causing a 50% cell death), HL60, MTT assay",[9],130 nM
same,"EC50 (a concentration of protein causing a 50% cell death), Jurkat, MTT assay",[9],200 nM
same,binding result,[1],no binding
same,binding result,[2],no binding
same,EC50 (read off the curve),[19],~200 nM
same,EC50 (read off the curve),[20],~200 nM
"KD413-KD506 hetero-dimer (designed binder, not shown: small tags and cut ends) CAKAEGTGYDGHEHKTHKGIRCQNWYKSKPHYHGHQFRDGDKIKNKKNYCRNPDPRAGPWCFTHGNRNRYELCNQPRCGGGGSGGGGSGGGGSGGGGSCPEDRGHEYDGDGDKTNRGHGCQYWDQNKPHHHGHRDKDKFKHRIKKNYCRNPDYETGPWCFTNRYRNKNELCHEPRC",EC50 (read off the curve),[12],~300 nM
same,EC50 (read off the curve),[21],~200 nM
same,EC50 (read off the curve),[22],~200 nM
"KD548 (designed binder, Soluble monomer from Pichia pastoris; also called anti-DR5 Kringle domain variant KD548; not shown: C-terminal myc tag-6xHis tag of pPICZaA) CHQTQGPKYDGNKDKTHKGHKCQSWTKNRPHHHGNKIENEDENRFQKNYCRNPDNKHEPWCFTHGHRDKHELCHEPRC",EC50 (read off the curve),[23],~200 nM
same,EC50 (read off the curve),[24],~200 nM
same,"EC50 (a concentration of protein causing a 50% cell death), HL60, MTT assay",[25],260 nM
same,EC50 (read off the curve),[26],~900 nM
same,EC50 (read off the curve),[27],~600 nM
same,EC50 (read off the curve),[28],~600 nM
same,binding result,[29],binds
same,EC50 (read off the curve),[30],~600 nM
